Reference: the supplement of paper PMC9170038

Test system: MS2 coat protein
Experiment: apparent KD of MS2 coat protein; designed switch direction (-1 OFF switch, 1 ON switch): -1; higher = weaker reporter binding
In short: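 The reported apparent KD is a per-design median over clusters, from curve fits of normalised cluster fluorescence. Protein titrations used SNAP-549-labelled MS2 coat protein, doubled from 0.7 or 1.5 nM to 3 µM, in Tris-HCl pH 7.5 buffer with KCl, MgCl2, BSA, DTT, tRNA and Tween-20, with no input, 200 uM small-molecule ligand, or an oligonucleotide input. The RNA switches were transcribed on Illumina chips by stalled E. coli RNA polymerase.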

[1] = Eterna round: R95, input ligand: FMN 200 uM
[2] = Eterna round: R95, input ligand: microRNA oligo, concentration not stated
[3] = Eterna round: R95, input ligand: none
[4] = input ligand: microRNA oligo, concentration not stated

| Sequence | apparent KD of MS2 coat protein [1] [nM] | apparent KD of MS2 coat protein [2] [nM] | apparent KD of MS2 coat protein [3] [nM] | apparent KD of MS2 coat protein [4] [nM] | apparent KD of MS2 coat protein (input ligand: FMN 200 uM) [nM] | apparent KD of MS2 coat protein (input ligand: none) [nM] |
| --- | --- | --- | --- | --- | --- | --- |
| CAUACUGAAGUUAGGAUAUUCGGACGAAUACGGAUGGAGAAGGGACAUGAGGAUCACCCAUGUAGAUAGUAAAG [EX-4 Malc #13] (puzzle: Brourd's mod of Exclusion 4) | 20.1 | 20.7 | 19.8 | – | – | – |
| CACCGUUACAGAGGAUAUCGUACAUGAGGAUCACCCAUGUAAUAAAUGAGAAUUUCGGAUGUAUGCGAGAAGGCUGGAAUCGGC [Ostracism 37 - Jieux - Exclusion NG 2] (Eterna round: R96, puzzle: Exclusion NG 2) | – | – | – | 20.7 | – | – |
| UCCAUGUCAGGAUAUCUAAAGGUCCGAAAUAACGGUACUGCAGAGAAGGGACAUGAGGAUCACCCAUGUCCUCC [Exclusion 4 (Mod2 of Nando's EX4 C.22)] (Eterna round: R97, puzzle: Exclusion 4) | – | – | – | – | 20.3 | 16 |
| UAGAUGGGAGGAUAUACAUAGAUACAGAUUCAUGUAGUGCUACAUGAGGAUCACCCAUGUAGAAGGCCCGUCUU [JL-ex2-2.18 Mayanne mod] (puzzle: Exclusion 2) | – | 31.6 | – | – | – | – |
| ACAAGCUUAAUCAGUAUGAACAUGAGGAUCACCCAUGUAAAAGGGAAUACUAUUGGGUUUUUUAAAGCUCGUCUUAU [JR_STOV1_Sub017] (Eterna round: R97, puzzle: Sensor, turn-off variant 1) | – | – | – | – | 23 | 21.8 |
| CUUUUGUGAGGAUAUUAGUAGUAAAAAAAUAAAAUUACUACUGAGAAGGCACAUGAGGAUCACCCAUGUUUCUC [salish99_ex4_r3_037] (puzzle: Exclusion 4) | – | 29.2 | – | – | – | – |
| UUGUUUUCCGCAGGAUAUGCUCCUCUAUUACUAGCAGAAGGGCGUUGAACAUGAGGAUCACCCAUGUAUGUAAUUGCUUAUUGC [JR_ExcNG1_Sub074] (Eterna round: R96, puzzle: Exclusion NG 1) | – | – | – | 17.5 | 19.3 | 24.4 |
| CCGCUCCGUGUAGGAUAUCGGCGUGCCCUGCGCCGAGAAGGACAUGAGGAUCACCCAUGUAUGUUAUUAUCACGCGUGGCGCAC [Design 75] (Eterna round: R96, puzzle: Exclusion NG 1) | – | – | – | 15 | 18.7 | 19.9 |
| AGAUGUAGAUACCGGUCCUACAUGAGGAUCACCCAUGUAGCUAGACGUGCGGGCGGCGCUCGUCGGUCUACCAGUAG [salish99_TOv1_r3_099] (puzzle: Sensor v3, turn-off variant 1) | 30.2 | 30.7 | 37.7 | – | – | – |
| UUUUAACAUGAGGAUCACCCAUGUGAGGAUAUCGAAAUUUAUAUUAAUAUUAAUUAAACGAGAAGGCACAUUUU [JMF 27] (puzzle: Exclusion 1) | – | 72.5 | – | – | – | – |
| CGGAUGUAAGGAUAUUAGUAGUAGUCAGAAAAGACUAUUACUGAGAAGGUACAUGAGGAUCACCCAUGUUUCCG [Mat - Exclusion 4 - Eli Mod - D43] (Eterna round: R97, puzzle: Exclusion 4) | – | – | – | – | 20.5 | 15.8 |
| CUAGCGAUUGUAGGAUAUCGAUGUGUUUCACAUCGAGAAGGACAUGAGGAUCACCCAUGUGAAGGAUCGUGAGAUCCACGCUAG [JL ENG1 3.78] (Eterna round: R96, puzzle: Exclusion NG 1) | – | – | – | 17.5 | 76.6 | 19.7 |
| UUAUUAUAUGAAGGAUAUACUUAACAUGAGGAUCACCCAUGUGGUGUUGUGAGUGAGUGAGUUUAGUAGAAGGUCAAUGAUUUU [JMF's solution 72] (Eterna round: R96, puzzle: Exclusion NG 2) | – | – | – | 186 | 1490 | 428 |
| UUUAAUUUUUUUUUUUUACAAGCUUUUUGCUCGUCUUAUACAUGAGGAUCACCCAUGUGGAUGGAGGAUAAAUUAUC [JMF 31] (puzzle: Sensor v3, turn-off variant 2) | 20.1 | 18.7 | 16.2 | – | – | – |
| ACAUGAGGAUCACCCAUGUAAUCAUGAUGGCUGAUGUAGAGGUAGGAUAUGAGUGGCUUUCUAUCUCAGAAGGACCAAGACUGG [Deportation 39 - Jieux - Exclusion NG 3] (Eterna round: R96, puzzle: Exclusion NG 3) | – | – | – | 21.6 | 29 | 27.3 |
| AAACCUGCCCAUGACCGCAAGCUUUUUGCUUGUCUCACCACAUGAGGAUCACCCAUGUGACAUGGGCUCCUUAUAAA [Orvesovera] (puzzle: Sensor v3, turn-off variant 2) | 13.7 | 9.96 | 12 | – | – | – |
| CUUUAGUGAGGAUAUCAGUAGUAGAACAAUAGUACUACUACUGAGAAGGCACAUGAGGAUCACCCAUGUUCCUC [Fiskers Ex 4 Super stable 44 mod 8] (puzzle: Exclusion 4) | – | 34.5 | – | – | – | – |

| Sequence | apparent KD of MS2 coat protein [1] [nM] | apparent KD of MS2 coat protein [2] [nM] | apparent KD of MS2 coat protein [3] [nM] | apparent KD of MS2 coat protein [4] [nM] | apparent KD of MS2 coat protein (input ligand: FMN 200 uM) [nM] | apparent KD of MS2 coat protein (input ligand: none) [nM] |
| --- | --- | --- | --- | --- | --- | --- |
| CAUGGAUGUGAGCCGCAUUACAUGAGGAUCACCCAUGUCAACAAGCUUUUUGCUUGUCUUACGCGGCGGCAUCAAAA [Geonso] (puzzle: Sensor v3, turn-off variant 1) | 12 | 9.86 | 10.3 | – | – | – |
| CGUGACUCAGGAUAUCUAUAGUGUCACAUGAGGAUCACCCAUGUCCAGCGAAAGCUGGAGGGAGAAGGGAGUCACG [Fiskers Ex 5 - 43] (Eterna round: R96, puzzle: Exclusion 5) | – | – | – | 71.5 | 43.1 | 87.7 |
| UUAUUAAGUGUGAGGAUAUGCUGGUCCUUGGAUCAGCAGAAGGCACAUGAGGAUCACCCAUGUACAAUAUUUUA [Mat - Exclusion 4 - JL Mod - D29] (puzzle: Brourd's mod of Exclusion 4) | – | 35.8 | – | – | – | – |
| GCUUGUCGAGGAUAUGCAUACACUGGAUACAGUGGAAGGUCACAUGAGGAUCACCCAUGUAGAAGGCGACGAGC [EX2 #39] (Eterna round: R97, puzzle: Exclusion 2) | – | – | – | – | 121 | 41.8 |
| UUUUAGCAAGCGAGUAUUAACAUGAGGAUCACCCAUGUGCAUCCAGUAUUACUUUUAGAUCAAGCUCGUCUUAUAUA [JR_STOV1_v2_Sub082] (Eterna round: R97, puzzle: Sensor, turn-off variant 1) | – | – | – | – | 199 | 285 |
| UGCGGGCUUUUGAGACCUCACAUGAGGAUCACCCAUGUGCUCGUCUUAUGGGCCGGCCGGCCGUUGGCCGGCCGGCC [-44, -68.1 kcal, A 12%] (Eterna round: R97, puzzle: Sensor, turn-off variant 1) | – | – | – | – | 70.2 | 67.8 |
| GAGAAGGUAGGAUAUACGAAUAAAUAGGGUAGUAAUAAUACACAUGAGGAUCACCCAUGUAGAAGGACCAAUAG [Mat - Exclusion 2 - Mod of my Tesla design - D40] (puzzle: Exclusion 2) | 42.5 | 20.8 | 24.9 | – | – | – |
| UGGUAACAUGAGGAUCACCCAUGUCAGGAUAUCAGUAAGAAGAGAGGAGAGUAGAAGAUGAGAAGGGACUAUAU [Excluse me! 9 - Jieux - Exclusion 1] (puzzle: Exclusion 1) | 26.4 | 29.9 | 37.4 | – | – | – |
| CAGUACUGAGGAUAUACAUGAGGAUCACCCAUGUGUUCCAGCUGGGAAACUAGCAAAAGUAGAAGGCAGUACUG [salish99_ex3_r3_076] (puzzle: Exclusion 3) | 422 | 27.3 | 20.8 | – | – | – |
| AGUACUAACACGAAAGUGUUAGUACAAUAAGCUUGUGAAACAUGAGGAUCACCCAUGUCCUCAUAAGCUCGUCUUAU [salish99_TOv2_r3_001again] (puzzle: Sensor v3, turn-off variant 2) | 16.7 | 648 | 15.9 | – | – | – |
| UGACCUAAAGGAUAUACAUGAGGAUCACCCAUGUCUUCAGCUGCCGUAAGGGAUCUUAGUAGAAGGUUAGGUCG [Eternabot (L1) Solution 43] (Eterna round: R97, puzzle: Exclusion 3) | – | – | – | – | 1360 | 84 |
| GCUUGACGAGGAUAUGCAUACACUGGAUACAGUGGAAGGUCACAUGAGGAUCACCCAUGUAGAAGGCGUCGAGC [EX2 #40] (Eterna round: R97, puzzle: Exclusion 2) | – | – | – | – | 123 | 35.4 |
| AUGCGACAUGAGGAUCACCCAUGUGAGGAUAUGCGAAUGCAUACUUCGGUGUGAUAGAGUAGAAGGCGCAGGUA [EX1 #17] (Eterna round: R97, puzzle: Exclusion 1) | – | – | – | – | 472 | 761 |
| GUACUACAUGAGGAUCACCCAUGUCAGGAUAUUUGAAUUUCAUCAAAAGAUGAAAUUCGGAGAAGGGACAGUAC [Omei Ex1 A7] (Eterna round: R97, puzzle: Exclusion 1) | – | – | – | – | 31.1 | 21.7 |
| UUUGAUAGCACAGGAUAUUGUGAUUUGAGUUGACAAGAAGGGUGUACAUGAGGAUCACCCAUGUAAUGGUUGCCUCGUUGACUU [JR_ExcNG1_Sub006] (Eterna round: R96, puzzle: Exclusion NG 1) | – | – | – | 36 | 48.8 | 46.8 |
| UAUAUAUAGUAAGGAUAUGUAUAUAUUUCAUAAACAGAAGGUACUGACAUGAGGAUCACCCAUGUUUUAGUGUGGGCAUGUAGA [JMF's solution 65] (Eterna round: R96, puzzle: Exclusion NG 1) | – | – | – | 48 | – | – |
| UUUUUCUCAGGAUAUACAUGAGGAUCACCCAUGUAUAUUAAGGAUAAUACAUGGGAAUGUAGAAGGGAGCUCAU [Omei Ex3 Pseudoloop 12] (Eterna round: R97, puzzle: Exclusion 3) | – | – | – | – | 106 | 160 |
